Experimental data taken from US20210032365A1 (Chugai, published 2021).
Where a chain is given by its changes, count along the chain named. Numbers in names are those of the source.

T1: human C1s (human, UniProt P09871 16-688)
T1 construct: also called hC1s; serum-derived human C1s (CompTech)
T1 sequence: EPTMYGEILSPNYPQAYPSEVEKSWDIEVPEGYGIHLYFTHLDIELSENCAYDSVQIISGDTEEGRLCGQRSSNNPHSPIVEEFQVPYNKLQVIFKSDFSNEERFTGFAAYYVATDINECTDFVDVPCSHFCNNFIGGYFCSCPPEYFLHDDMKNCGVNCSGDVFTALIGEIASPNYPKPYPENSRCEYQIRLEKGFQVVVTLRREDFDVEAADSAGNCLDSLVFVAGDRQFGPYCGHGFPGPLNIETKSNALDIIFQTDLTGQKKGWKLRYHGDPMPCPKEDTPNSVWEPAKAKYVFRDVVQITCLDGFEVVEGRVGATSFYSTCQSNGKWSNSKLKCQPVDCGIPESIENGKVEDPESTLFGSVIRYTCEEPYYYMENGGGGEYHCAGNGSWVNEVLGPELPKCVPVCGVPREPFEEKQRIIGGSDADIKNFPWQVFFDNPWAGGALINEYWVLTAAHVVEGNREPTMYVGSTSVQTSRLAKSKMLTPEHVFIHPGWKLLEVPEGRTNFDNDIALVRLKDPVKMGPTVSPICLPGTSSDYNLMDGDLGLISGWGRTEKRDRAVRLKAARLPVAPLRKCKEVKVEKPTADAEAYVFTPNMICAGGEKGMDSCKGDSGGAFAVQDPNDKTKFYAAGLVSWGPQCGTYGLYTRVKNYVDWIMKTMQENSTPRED

T2: human C1s (human, UniProt P09871 16-688)
T2 construct: Analyte in the Biacore assays; also called hC1s; serum-derived human C1s (CompTech)
T2 sequence: T1 sequence

B1: C1_IPN009VH2-SG4GK/IPN93L0021-SK1 (antibody, human IgG4 S228P, kappa, name in Kabat numbering)
heavy: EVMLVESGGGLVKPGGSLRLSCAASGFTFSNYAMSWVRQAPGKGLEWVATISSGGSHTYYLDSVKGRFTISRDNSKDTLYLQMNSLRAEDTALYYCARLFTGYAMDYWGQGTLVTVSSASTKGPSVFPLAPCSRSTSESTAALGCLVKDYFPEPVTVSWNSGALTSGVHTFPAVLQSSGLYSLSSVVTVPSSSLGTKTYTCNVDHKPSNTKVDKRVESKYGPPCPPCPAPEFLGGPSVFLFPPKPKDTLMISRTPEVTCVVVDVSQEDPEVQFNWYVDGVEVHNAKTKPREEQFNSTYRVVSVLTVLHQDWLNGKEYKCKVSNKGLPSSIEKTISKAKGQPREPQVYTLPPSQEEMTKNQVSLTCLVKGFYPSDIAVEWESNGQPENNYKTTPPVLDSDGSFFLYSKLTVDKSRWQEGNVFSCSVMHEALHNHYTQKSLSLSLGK
light: QIVLTQSPATLSLSPGERATLSCTASSSVSSSYLHWYQQKPGKAPKLWIYSTSNLASGVPSRFSGSGSGTDYTLTISSLQPEDFATYYCHQYHRLPPITFGQGTKLEIKRTVAAPSVFIFPPSDEQLKSGTASVVCLLNNFYPREAKVQWKVDNALQSGNSQESVTEQDSKDSTYSLSSTLTLSKADYEKHKVYACEVTHQGLSSPVTKSFNRGEC
notes: also called IPN009VH2/IPN93L0021
B2: C1_IPN009VH2-SG4GK/IPN93L0023-SK1 (antibody, human IgG4 S228P, kappa, name in Kabat numbering)
heavy: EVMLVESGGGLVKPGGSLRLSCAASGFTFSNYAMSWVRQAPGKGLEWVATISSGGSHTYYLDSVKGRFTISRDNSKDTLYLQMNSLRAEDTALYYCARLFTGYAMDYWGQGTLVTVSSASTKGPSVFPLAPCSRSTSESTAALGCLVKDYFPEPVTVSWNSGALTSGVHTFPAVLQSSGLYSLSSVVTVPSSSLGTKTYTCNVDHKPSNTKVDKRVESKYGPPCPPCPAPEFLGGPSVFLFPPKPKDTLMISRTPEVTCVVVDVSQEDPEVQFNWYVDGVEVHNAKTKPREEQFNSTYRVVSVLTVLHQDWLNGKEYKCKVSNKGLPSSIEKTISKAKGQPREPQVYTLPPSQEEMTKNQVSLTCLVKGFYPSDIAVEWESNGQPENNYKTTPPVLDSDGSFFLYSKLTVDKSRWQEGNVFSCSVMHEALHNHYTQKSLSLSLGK
light: B1 light with H93Y, L95H
notes: also called IPN009VH2/IPN93L0023
B3: C1_IPN009VH2-SG4GK/IPN93L0024-SK1 (antibody, human IgG4 S228P, kappa)
heavy: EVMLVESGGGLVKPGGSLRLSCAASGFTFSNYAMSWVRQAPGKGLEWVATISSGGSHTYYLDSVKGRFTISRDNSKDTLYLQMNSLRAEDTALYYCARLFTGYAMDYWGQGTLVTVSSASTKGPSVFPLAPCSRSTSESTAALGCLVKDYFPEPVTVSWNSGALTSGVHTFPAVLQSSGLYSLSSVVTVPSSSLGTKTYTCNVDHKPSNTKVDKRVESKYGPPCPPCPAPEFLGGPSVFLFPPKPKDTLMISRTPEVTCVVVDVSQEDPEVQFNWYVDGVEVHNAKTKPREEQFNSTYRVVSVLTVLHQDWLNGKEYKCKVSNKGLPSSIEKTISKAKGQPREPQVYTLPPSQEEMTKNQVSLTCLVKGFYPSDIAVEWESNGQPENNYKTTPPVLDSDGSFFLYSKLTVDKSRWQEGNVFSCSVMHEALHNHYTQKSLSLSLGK
light: B1 light with H93Y, P96H
notes: VL = IPN009VK3 with P95H (Kabat); also called IPN009VH2/IPN93L0024
B4: C1_IPN92H0026-SG4GK/IPN009VK3-SK1 (antibody, human IgG4 S228P, kappa, name in Kabat numbering, V domains shown)
VH: EVMLVESGGGLVKPGGSLRLSCAASGFTFSNYAMSWVRQAPGKGLEWVATISSGGSHTYYLDSVKHRFTISRDNSKDTLYLQMNSLRAEDTALYYCARLFTGYAMDYWGQGTLVTVSS
VL: QIVLTQSPATLSLSPGERATLSCTASSSVSSSYLHWYQQKPGKAPKLWIYSTSNLASGVPSRFSGSGSGTDYTLTISSLQPEDFATYYCHQYYRLPPITFGQGTKLEIKR
notes: also called IPN92H0026/IPN009VK3
B5: C1_IPN92H0033-SG4GK/IPN009VK3-SK1 (antibody, human IgG4 S228P, kappa)
heavy: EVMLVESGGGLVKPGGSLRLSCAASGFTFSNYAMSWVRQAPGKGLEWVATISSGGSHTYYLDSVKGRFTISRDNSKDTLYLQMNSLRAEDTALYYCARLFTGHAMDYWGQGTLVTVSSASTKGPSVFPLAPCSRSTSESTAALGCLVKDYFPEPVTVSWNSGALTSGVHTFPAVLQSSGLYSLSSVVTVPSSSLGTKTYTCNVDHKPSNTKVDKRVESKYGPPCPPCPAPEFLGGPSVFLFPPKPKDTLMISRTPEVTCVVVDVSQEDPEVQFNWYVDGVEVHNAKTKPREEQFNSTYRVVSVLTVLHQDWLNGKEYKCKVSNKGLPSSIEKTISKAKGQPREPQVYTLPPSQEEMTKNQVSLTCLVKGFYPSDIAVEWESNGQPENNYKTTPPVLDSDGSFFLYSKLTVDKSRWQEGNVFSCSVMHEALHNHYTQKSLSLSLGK
light: B1 light with H93Y
notes: VH = IPN009VH2 with Y99H (Kabat); also called IPN92H0033/IPN009VK3
B6: IPN009VH2/IPN93L0024-SG136 (antibody, human IgG1, kappa)
heavy: EVMLVESGGGLVKPGGSLRLSCAASGFTFSNYAMSWVRQAPGKGLEWVATISSGGSHTYYLDSVKGRFTISRDNSKDTLYLQMNSLRAEDTALYYCARLFTGYAMDYWGQGTLVTVSSASTKGPSVFPLAPSSKSTSGGTAALGCLVKDYFPEPVTVSWNSGALTSGVHTFPAVLQSSGLYSLSSVVTVPSSSLGTQTYICNVNHKPSNTKVDKKVEPKSCDKTHTCPPCPAPELRRGPSVFLFPPKPKDTLMISRTPEVTCVVVDVSHEDPEVKFNWYVDGVEVHNAKTKPREEQYNSTYRVVSVLTVLHQDWLNGKEYKCKVSNKGLPSSIEKTISKAKGQPREPQVYTLPPSREEMTKNQVSLTCLVKGFYPSDIAVEWESNGQPENNYKTTPPVLDSDGSFFLYSKLTVDKSRWQQGNVFSCSVMHEALHNHYTQKSLSLSP
light: B1 light with H93Y, P96H, S173C
notes: also called IPN009VH2/IPN93L0024 (lot PPU2044)
B7: IPN92H0033/IPN009VK3-SG136 (antibody, human IgG1, kappa)
heavy: B6 heavy with Y103H
light: B1 light with H93Y, S173C
notes: also called IPN92H0033/IPN009VK3 (lot PPU2041)
B8: IPN92H0033/IPN93L0024-SG136 (antibody, human IgG1, kappa)
heavy: B6 heavy with Y103H
light: B1 light with H93Y, P96H, S173C
notes: also called IPN92H0033/IPN93L0024 (lot PPU2046)
B9: IPN92H0288/IPN93L0058-SG136 (antibody, human IgG1, kappa)
heavy: B6 heavy with Y60E, K65D, G102K, Y103H
light: B1 light with S28E, H93Y, P96H, S173C
notes: also called IPN92H0288/IPN93L0058 (lot PPU2050)
B10: IPN92H0288/IPN93L0211-SG136 (antibody, human IgG1, kappa)
heavy: B6 heavy with Y60E, K65D, G102K, Y103H
light: B1 light with S28E, S31E, H93Y, P96H, S173C
notes: also called IPN92H0288/IPN93L0211 (lot PPU2049)
B11: IPN92H0307/IPN93L0058-SG136 (antibody, human IgG1, kappa)
heavy: B6 heavy with T28E, S30E, Y60E, K65D, G102K, Y103H
light: B1 light with S28E, H93Y, P96H, S173C
notes: also called IPN92H0307/IPN93L0058 (lot PPU2051)

What was measured:
human C1s [1] = biological target: T1, human C1s; assay: SPR, Ab captured; pH 5.8, 1.2 mM Ca
Procedure: (§1) All variants were transiently expressed and purified by the method described above. The binding affinity of each histidine-substituted variant at pH 7.4 and pH 5.8 was determined at 37 degrees C. using Biacore T200 instrument (GE Healthcare). Recombinant Protein A/G (Pierce) was immobilized onto all flow cells of a CM4 sensor chip using an amine coupling kit (GE Healthcare). Antibodies and analytes were prepared in 7(+) buffer (20 mM ACES, 150 mM NaCl, 1.2 mM CaCl2, 0.05% Tween 20, 0.005% NaN3, pH 7.4), 5(+) buffer (20 mM ACES, 150 mM NaCl, 1.2 mM CaCl2, 0.05% Tween 20, 0.005% NaN3, pH 5.8), or 5(−) buffer (20 mM ACES, 150 mM NaCl, 3 micro M CaCl2, 0.05% Tween 20, 0.005% NaN3, pH 5.8). Each antibody was captured onto the sensor surface by protein A/G. Antibody capture levels were aimed at 200 resonance unit (RU). Serum-derived human C1s (CompTech) or recombinant C1s prepared in EXAMPLE 1 was injected at 50 nM, followed by dissociation. The sensor surface was regenerated in each cycle with 10 mM Glycine-HCl, pH 1.5. […] The ratio of KD 5.8+ to KD 7.4+(“KD 5+/7+”) and that of KD 5.8− to KD 7.4+(“KD 5−/7+”) were calculated. When the KD 5+/7+ or KD 5−/7+ of a variant is larger than that of the parent antibody IPN009VH2-SG4GK/IPN009VK3-SK1, that variant is considered to be “pH”- or “pH and Ca”-dependent, respectively. When binding response in 5(+) buffer and/or in 5(−) buffer of a variant is much lower than that of IPN09VH2/IPN009VK3, that variant is also considered as “pH”- and/or “pH and Ca”-dependent. Therefore, such mutations are effective to generate “pH”- and/or “pH and Ca”-dependent antibody. To further enhance “pH” and/or “pH and Ca” dependency, a combination of histidine mutations was conducted. Antibodies with combinations of histidine mutations were evaluated using Biacore by the method described above.

human C1s [2] = biological target: T1, human C1s; assay: SPR, Ab captured; pH 5.8, 3 uM Ca
Procedure: as §1

human C1s [3] = biological target: T1, human C1s; assay: SPR, Ab captured; pH 7.4, 1.2 mM Ca
Procedure: as §1

human C1s [4] = biological target: T1, human C1s; assay: SPR; KD pH 5.8 3 uM Ca / KD pH 7.4 1.2 mM Ca
Procedure: as §1

human C1s [5] = biological target: T1, human C1s; assay: SPR; KD pH 5.8 1.2 mM Ca / KD pH 7.4 1.2 mM Ca
Procedure: as §1

human C1s [6] = biological target: T2, human C1s; assay: SPR; KD at pH 5.8 over KD at pH 7.4, both 1.2 mM Ca
Procedure: The binding affinity of all histidine-substituted variants at pH 7.4 and pH 5.8 were determined at 37 degrees C. using Biacore T200 instrument (GE Healthcare). Recombinant Protein A/G (Pierce) was immobilized onto all flow cells of a CM4 sensor chip using amine coupling kit (GE Healthcare). Antibodies and analytes were prepared in 7(+) buffer (20 mM ACES, 150 mM NaCl, 1.2 mM CaCl2, 0.05% Tween 20, 0.005% NaN3, pH 7.4) or 5(+) buffer (20 mM ACES, 150 mM NaCl, 1.2 mM CaCl2), 0.05% Tween 20, 0.005% NaN3, pH 5.8). Each antibody was captured onto the sensor surface by protein A/G. Antibody capture levels were aimed at 200 resonance unit (RU). […] Sensor surface was regenerated each cycle with 10 mM Glycine-HCl pH 1.5. […] An additional dissociation phase at pH 5.8 was integrated immediately after the dissociation phase at pH 7.4. This dissociation rate in 5(+) buffer was determined by processing and fitting data using Scrubber 2.0 (BioLogic Software) curve fitting software. […]

human C1s [7] = biological target: T2, human C1s; assay: SPR; koff (5.8+ of 775+): extra dissociation phase at pH 5.8 (1.2 mM Ca) right after the pH 7.4 dissociation, Scrubber fit
Procedure: (§2) The binding affinity of all histidine-substituted variants at pH 7.4 and pH 5.8 were determined at 37 degrees C. using Biacore T200 instrument (GE Healthcare). Recombinant Protein A/G (Pierce) was immobilized onto all flow cells of a CM4 sensor chip using amine coupling kit (GE Healthcare). Antibodies and analytes were prepared in 7(+) buffer (20 mM ACES, 150 mM NaCl, 1.2 mM CaCl2, 0.05% Tween 20, 0.005% NaN3, pH 7.4) or 5(+) buffer (20 mM ACES, 150 mM NaCl, 1.2 mM CaCl2), 0.05% Tween 20, 0.005% NaN3, pH 5.8). Each antibody was captured onto the sensor surface by protein A/G. Antibody capture levels were aimed at 200 resonance unit (RU). […] Sensor surface was regenerated each cycle with 10 mM Glycine-HCl pH 1.5. […] An additional dissociation phase at pH 5.8 was integrated immediately after the dissociation phase at pH 7.4. This dissociation rate in 5(+) buffer was determined by processing and fitting data using Scrubber 2.0 (BioLogic Software) curve fitting software.

human C1s [8] = biological target: T2, human C1s; assay: SPR (Biacore T200, 37C), Ab captured on protein A/G, serum C1s 12.5 and 50 nM; pH 7.4, 1.2 mM Ca
Procedure: as §2

| Kd (human C1s [1]) [nM] | koff (human C1s [1]) [s⁻¹] | kon (human C1s [1]) [M⁻¹ s⁻¹] | Kd (human C1s [2]) [nM] | koff (human C1s [2]) [s⁻¹] | Kd (human C1s [3]) [nM] | koff (human C1s [3]) [s⁻¹] | kon (human C1s [3]) [M⁻¹ s⁻¹] | KD 5(-)/7(+) (human C1s [4]) | KD 5(+)/7(+) (human C1s [5]) | kon (human C1s [2]) [M⁻¹ s⁻¹] | KD (5.8+)/KD (7.4+) (human C1s [6]) | koff (human C1s [7]) [s⁻¹] | koff (human C1s [8]) [s⁻¹] | Binder |
| --- | --- | --- | --- | --- | --- | --- | --- | --- | --- | --- | --- | --- | --- | --- |
| 3.21 | 0.00203 | 632000 | 9.54 | > 0.1 | 2.68 | 0.000898 | 335000 | 3.6 | 1.2 |  |  |  |  | B1 |
| 1.83 | 0.00131 | 716000 | 13.8 | 0.092 | 2.18 | 0.000725 | 332000 | 6.3 | 0.8 | 6.67e+06 |  |  |  | B2 |
|  | 0.00149 | 384000 |  | 0.132 |  | 0.000574 | 233000 | 9.1 | 1.6 | 5.92e+06 |  |  |  | B3 |
| 0.222 | 0.000162 | 729000 | 2.58 | 0.00171 | 0.549 | 0.000236 | 430000 | 4.7 | 0.4 | 665000 |  |  |  | B4 |
|  | 0.000372 | 722000 |  | 0.00635 |  | 0.00026 | 328000 | 12.1 | 0.7 | 664000 |  |  |  | B5 |
|  |  |  |  |  |  |  |  |  |  |  | 1.3 | 0.000741 | 0.000612 | B6 |
|  |  |  |  |  |  |  |  |  |  |  | 0.9 | 0.000265 | 0.00038 | B7 |
|  |  |  |  |  |  |  |  |  |  |  | 4.7 | 0.0029 | 0.000571 | B8 |
|  |  |  |  |  |  |  |  |  |  |  | 65.6 | 0.0158 | 0.000408 | B9 |
|  |  |  |  |  |  |  |  |  |  |  | 74.9 | 0.0282 | 0.00052 | B10 |
|  |  |  |  |  |  |  |  |  |  |  | 28.4 | 0.0151 | 0.000523 | B11 |
